The target of data set [1] is T1, TdIF1 (His-tagged) (UniProt Q9H147 1-329).
T1 sequence: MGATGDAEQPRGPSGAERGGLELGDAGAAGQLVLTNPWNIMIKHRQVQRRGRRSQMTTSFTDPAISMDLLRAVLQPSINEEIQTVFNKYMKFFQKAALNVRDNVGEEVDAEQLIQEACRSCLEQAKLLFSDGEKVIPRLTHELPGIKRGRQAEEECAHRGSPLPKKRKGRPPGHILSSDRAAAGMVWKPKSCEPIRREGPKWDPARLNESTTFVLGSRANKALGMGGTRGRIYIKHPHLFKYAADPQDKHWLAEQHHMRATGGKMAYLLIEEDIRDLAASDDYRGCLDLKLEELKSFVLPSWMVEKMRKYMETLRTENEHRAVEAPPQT
The data set is described as follows: EMSA; EMSA: 10 mM Tris-HCl pH 7.5, 100 mM NaCl, 1 mM EDTA, 1 mM DTT, 5% glycerol, 5 pmol probe, 100 ng protein in 10 ul, temperature not stated; GST pull-out: elution in 50 mM Tris-HCl pH 7.4, 5 mM beta-mercaptoethanol, 0.25% Tween 20, 10% glycerol, 150-350 mM NaCl. The note with it: protein: recombinant; tags: His; chain copies: 2; label: biotin.

Data set [2] concerns the target T1, TdIF1 (His-tagged). Kind of data set: competition; EMSA vs biotin-dsAT; 5, 15, 45 pmol; slightly weaker than competitor I; EMSA: 10 mM Tris-HCl pH 7.5, 100 mM NaCl, 1 mM EDTA, 1 mM DTT, 5% glycerol, 5 pmol probe, 100 ng protein in 10 ul, temperature not stated; GST pull-out: elution in 50 mM Tris-HCl pH 7.4, 5 mM beta-mercaptoethanol, 0.25% Tween 20, 10% glycerol, 150-350 mM NaCl. As to conditions: protein: recombinant; tags: His; chain copies: 2.

For data set [3], the target named is T1, TdIF1 (His-tagged). The data set is described as follows: competition; EMSA vs biotin-dsAT; 5, 15, 45 pmol; complex decreased; EMSA: 10 mM Tris-HCl pH 7.5, 100 mM NaCl, 1 mM EDTA, 1 mM DTT, 5% glycerol, 5 pmol probe, 100 ng protein in 10 ul, temperature not stated; GST pull-out: elution in 50 mM Tris-HCl pH 7.4, 5 mM beta-mercaptoethanol, 0.25% Tween 20, 10% glycerol, 150-350 mM NaCl. The note with it: protein: recombinant; tags: His; chain copies: 2. (Mobility shift assays separate free from complexed probe on a gel.)

B1: biotin-dsAT probe (32-bp AT-rich dsDNA) (dsDNA)
DNA 1: CGGTATTAAAAATTACTGACAATATTAAATTAGATC
DNA 2: TAATTTAATATTGTCAGTAATTTTTAATACCG
B1: the binding result with TdIF1 (His-tagged) [1] is listed as “binds”.

B2: Competitor III (GNTGCATG only, AT-tract mutated) (dsDNA)
DNA 1: CGCCAAGCCTCAGTTGCATGGTCG
DNA 2: CGACCATGCAACTGAGGCTTGGCG
With B2, the binding result with TdIF1 (His-tagged) [2] is “binds”.

B3: Competitor I (SELEX clone 10; AT-tract + GNTGCATG) (dsDNA)
DNA 1: CGCCAAATAAAAGTTGCATGGTCG
DNA 2: CGACCATGCAACTTTTATTTGGCG
As for B3, the binding result in the data set with TdIF1 (His-tagged) [3] is on record as “binds”.

For the origin of these results see PMC3707907, “TdIF1 Recognizes a Specific DNA Sequence through Its Helix-Turn-Helix and AT-Hook Motifs to Regulate Gene Transcription”.
